Earlier results on 1 substance are cited in paper PMC8291337.

One may read the Kd as a measure of binding affinity in units of concentration.

In the data set the target is Spike protein (SARS-CoV-2) (UniProt P0DTC2).

In the case of CD147 (from UniProt P35613), the Kd is 185 nM.
